# Experiments:
# [1] = target: human NL1 cholinesterase domain lacking splice inserts (hNL1(–A–B)_(ECTO); Gln46-Asp635), crystallisation sample (human); experiment: crystal structure; Endo F1-treated hNL1(–A–B)_(ECTO)–cMDGA1_(ECTO) complex, mixed 1:1.25, 0.1M Na.HEPES pH 7.0, 7.5% PEG8000; 3.30 Å
# [2] = target: human NL1(–A–B)_(ECTO) (Gln46-Asp635), soluble protein for ITC and as SPR analyte (human); experiment: ITC; β-NRX1_(LNS6)(–4) in the syringe titrated into NL1_(ECTO) alone in the cell; HBS-C (10 mM HEPES pH 7.50, 150 mM NaCl, 3 mM CaCl2), 295 K; one binding site model
# [3] = target: human NL3(–A)_(ECTO) (Gln38-Asp636), immobilised for SPR (human) (UniProt Q9NZ94); experiment: SPR; biotinylated NL_(ECTO)-Avitag variants captured from dialysed conditioned medium on streptavidin CM5 chip (500 RU; 550 RU for the ΔSite series; 1000 RU for NL3 and NL3 Arg451Cys in the R451C series); β-NRX1_(LNS6)(±4), MDGA1_(ECTO), MDGA2_(ECTO) injected, 15 concentrations, two-fold series from 50 μM; TBS-CTB (10 mM Tris pH 7.4, 150 mM NaCl, 3 mM CaCl2, 0.005% Tween-20, 1.0 g/L BSA); equilibrium analysis, 1:1 Langmuir model
# [4] = target: human NL1(–A+B)_(ECTO), immobilised for SPR (human); experiment: as above
# [5] = target: human NL1(–A–B)_(ECTO), biotinylated and immobilised for SPR (human); experiment: as above
# [6] = target: human NL1(–A–B)_(ECTO) (Gln46-Asp635), soluble protein for ITC and as SPR analyte (human); experiment: ITC; competition: β-NRX1_(LNS6)(–4) titrated into NL1_(ECTO) with an equimolar amount of MDGA1_(ECTO) in the cell; HBS-C, 295 K; apparent KD
# Sequence of human NL3(–A)_(ECTO) (Gln38-Asp636), immobilised for SPR (human) (Q9NZ94 other isoform, or with tags, fused parts or gaps): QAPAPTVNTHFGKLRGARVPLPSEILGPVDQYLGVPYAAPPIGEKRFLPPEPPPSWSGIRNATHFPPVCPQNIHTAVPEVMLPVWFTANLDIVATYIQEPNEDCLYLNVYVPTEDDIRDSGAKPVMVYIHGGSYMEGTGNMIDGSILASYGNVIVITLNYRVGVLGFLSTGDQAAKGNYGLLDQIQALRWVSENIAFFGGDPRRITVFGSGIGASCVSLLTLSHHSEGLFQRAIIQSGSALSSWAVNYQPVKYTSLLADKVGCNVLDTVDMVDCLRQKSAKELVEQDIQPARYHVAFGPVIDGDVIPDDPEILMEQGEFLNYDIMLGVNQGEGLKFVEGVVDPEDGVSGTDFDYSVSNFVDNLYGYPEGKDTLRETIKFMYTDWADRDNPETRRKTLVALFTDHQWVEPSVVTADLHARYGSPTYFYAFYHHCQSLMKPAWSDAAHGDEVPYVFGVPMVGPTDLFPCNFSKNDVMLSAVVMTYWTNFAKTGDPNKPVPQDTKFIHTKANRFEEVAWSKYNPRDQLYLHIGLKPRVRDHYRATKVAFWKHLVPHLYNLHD
Kd [2] [nM],Kd [3] [nM],fold weaker than with NL1(–A–B) (ECTO) [4] [fold],Kd [5] [nM],"K (D,app) with an equimolar amount of MDGA1 (ECTO) [6] [µM]",Substance,stoichiometry N [1]
–,–,–,–,–,"human NL1 cholinesterase domain lacking splice inserts (hNL1(–A–B)_(ECTO); Gln46-Asp635), crystallisation sample (domain or fragment)",2
388,8500,< 2,718,4.76,human β-neurexin-1 LNS6 domain lacking SS4 (β-NRX1_(LNS6)(–4); His85-Val265) (domain or fragment),–
–,–,< 2,–,–,human β-neurexin-1 LNS6 domain with SS4 (β-NRX1_(LNS6)(+4)) (domain or fragment),–
